Test results from FireProtDB (doi:10.1021/bi00102a015).

B1: Cytochrome c2, P00094 (parent)
chain: MKISLTAATVAALVLAAPAFAGDAAKGEKEFNKCKTCHSIIAPDGTEIVKGAKTGPNLYGVVGRTAGTYPEFKYKDSIVALGASGFAWTEEDIATYVKDPGAFLKEKLDDKKAKTGMAFKLAKGGEDVAAYLASVVK

Variants of: B1
Conditions: Rhodobacter capsulatus (strain ATCC BAA-309 / NBRC 16581 / SB1003); pH 7.5; 25 °C; GdnHCl; CD; Tris-HCl 20 mM; NaCl 40 mM; structure 1C2R; whole UniProt chain shown

Variant | ddG of mutation (higher = less stable) [kJ/mol] | denaturant m value [kcal/mol/M] | denaturant midpoint (higher = more stable) [M] | unfolding free energy [kJ/mol]
K35E | 3.77 | 2.8 | 1.2 | 14.6
K35E K53E | 3.35 | 3 | 1.2 | 15.1
K53E | -1.67 | 3 | 1.6 | 20.1
K33D | 4.6 | 2.8 | 1.2 | 13.8
